Holding throughout (assay): transient-state stopped-flow spectrofluorometry
Assay [1] concerns the target L47fUAA GCK (human pancreatic glucokinase with L-(7-hydroxycoumarin-4-yl)ethylglycine in place of Leu47) (human) (UniProt P35557).
Assay [2] shares this target. The source holds these as a separate data set.
Assay [3] shares this target. The source holds these as a separate data set.

Where two headings read alike, the source gives them in different places.

“glucokinase regulatory protein (GKRP) (from UniProt Q14397 1-625) (natural protein)”: in assay [1], the Kd came to 0.124 µM. Also, in assay [2], the K2 (step 2, equilibrium constant of isomerisation) turned out to be 0.72; the dissociation constant (Kd) turned out to be 0.123 µM; the Kd,intrinsic (step 1, encounter complex) was determined as 0.21 µM; the k1 (step 1, formation of the encounter complex) turned out to be 170000 M⁻¹ s⁻¹. In assay [2], this substance gave a k−1 (step 1, dissociation of the encounter complex) of 0.036 s⁻¹ and a k−2 (step 2, isomerisation reverse) of 0.36 s⁻¹. In assay [3], this substance registered a K2 (step 2, equilibrium constant of isomerisation) of 0.51; an equilibrium dissociation constant (Kd) of 21 µM; a Kd,intrinsic (step 1, encounter complex) of 32 µM; a k1 (step 1, formation of the encounter complex) of 64000 M⁻¹ s⁻¹. In assay [3], the k−1 (step 1, dissociation of the encounter complex) stood at 2.06 s⁻¹ and the k−2 (step 2, isomerisation reverse) was 0.21 s⁻¹.

One may read the Kd as the concentration at which binding is half-saturated.

The values above are taken from article PMC7140980.
